From patent US20230374150A1 (Memorial Sloan Kettering, published 2023)
Where “and” joins values, the source holds several entries; their conditions need not be identical. Equal entries are not always repeated.

B1: humanized anti-PSMAxCD3 BsAb BC244 (H3L1) (bispecific antibody, human IgG1, kappa, N297A)
light: DIQLTQSPSFLSASVGDRVTITCRASQDVGTALDWYQQKPGKAPKLLIYWASTLHSGVPSRFSGSGSGTEFTLTISSLQPEDFATYYCQQYNSYPLTFGQGTKLEIKRTVAAPSVFIFPPSDEQLKSGTASVVCLLNNFYPREAKVQWKVDNALQSGNSQESVTEQDSKDSTYSLSSTLTLSKADYEKHKVYACEVTHQGLSSPVTKSFNRGECTSGGGGSGGGGSGGGGSQVQLVQSGGGVVQPGRSLRLSCKASGYTFTRYTMHWVRQAPGKCLEWIGYINPSRGYTNYNQKFKDRFTISRDNSKNTAFLQMDSLRPEDTGVYFCARYYDDHYSLDYWGQGTPVTVSSGGGGSGGGGSGGGGSGGGGSGGGGSGGGGSDIQMTQSPSSLSASVGDRVTITCSASSSVSYMNWYQQTPGKAPKRWIYDTSKLASGVPSRFSGSGSGTDYTFTISSLQPEDIATYYCQQWSSNPFTFGCGTKLQITR
heavy: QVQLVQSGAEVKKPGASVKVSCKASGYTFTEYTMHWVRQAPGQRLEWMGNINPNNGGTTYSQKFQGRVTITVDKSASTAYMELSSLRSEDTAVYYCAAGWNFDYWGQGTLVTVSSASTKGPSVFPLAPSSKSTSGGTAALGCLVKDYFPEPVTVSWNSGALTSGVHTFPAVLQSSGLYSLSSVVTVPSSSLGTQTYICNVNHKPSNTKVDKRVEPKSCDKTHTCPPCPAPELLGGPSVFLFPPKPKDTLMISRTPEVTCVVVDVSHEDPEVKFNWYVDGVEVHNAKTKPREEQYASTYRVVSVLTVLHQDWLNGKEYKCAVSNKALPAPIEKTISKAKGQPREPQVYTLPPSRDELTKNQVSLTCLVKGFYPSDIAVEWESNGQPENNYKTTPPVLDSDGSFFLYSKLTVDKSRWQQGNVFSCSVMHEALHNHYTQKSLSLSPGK
notes: IgG(L)-scFv format, J591_VL-1 + J591_VH-3; also called PSMA-BsAb
B2: 10J5-chimeric J591 (antibody, V domains shown)
VH: EVQLQQSGPELVKPGTSVRISCKTSGYTFTEYTIHWVKQSHGKSLEWIGNINPNNGGTTYNQKFEDKATLTVDKSSSTAYMELRSLTSEDSAVYYCAAGWNFDYWGQGTTLTVSS
VL: DIVMTQSHKFMSTSVGDRVSIICKASQDVGTAVDWYQQKPGQSPKLLIYWASTRHTGVPDRFTGSGSGTDFTLTITNVQSEDLADYFCQQYNSYPLTFGAGTMLDLKR
notes: also called J591 chimeric antibody
B3: anti-PSMAxhuC825 clone BC192 (PSMA LALA) (bispecific antibody, human IgG1, kappa, L234A L235A)
light: DIQLTQSPSFLSASVGDRVTITCRASQDVGTALDWYQQKPGKAPKLLIYWASTLHSGVPSRFSGSGSGTEFTLTISSLQPEDFATYYCQQYNSYPLTFGQGTKLEIKRTVAAPSVFIFPPSDEQLKSGTASVVCLLNNFYPREAKVQWKVDNALQSGNSQESVTEQDSKDSTYSLSSTLTLSKADYEKHKVYACEVTHQGLSSPVTKSFNRGECTSGGGGSGGGGSGGGGSHVQLVESGGGLVQPGGSLRLSCAASGFSLTDYGVHWVRQAPGKGLEWLGVIWSGGGTAYNTALISRFTISRDNSKNTLYLQMNSLRAEDTAVYYCARRGSYPYNYFDAWGCGTLVTVSSGGGGSGGGGSGGGGSGGGGSGGGGSGGGGSQAVVTQEPSLTVSPGGTVTLTCGSSTGAVTASNYANWVQQKPGQCPRGLIGGHNNRPPGVPARFSGSLLGGKAALTLLGAQPEDEAEYYCALWYSDHWVIGGGTKLTVLG
heavy: not shown
B4: anti-PSMAxhuC825 clone BC193 (PSMA K322) (bispecific antibody)
light: B3 light
heavy: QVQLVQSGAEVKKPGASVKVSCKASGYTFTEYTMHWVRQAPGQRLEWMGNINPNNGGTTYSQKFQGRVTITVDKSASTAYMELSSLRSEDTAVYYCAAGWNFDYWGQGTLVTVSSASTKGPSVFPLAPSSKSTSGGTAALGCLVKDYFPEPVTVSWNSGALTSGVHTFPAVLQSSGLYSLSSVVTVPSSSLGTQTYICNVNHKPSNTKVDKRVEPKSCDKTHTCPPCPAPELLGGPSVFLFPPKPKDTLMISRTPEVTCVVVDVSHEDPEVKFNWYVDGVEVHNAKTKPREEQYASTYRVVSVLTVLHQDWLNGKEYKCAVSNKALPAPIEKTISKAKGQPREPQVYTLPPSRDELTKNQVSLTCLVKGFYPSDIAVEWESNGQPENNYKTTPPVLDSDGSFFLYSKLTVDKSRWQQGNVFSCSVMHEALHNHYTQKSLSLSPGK

What was measured:
[1] = biological target: PSMA on PSMA(+) human prostate cancer cell lines (LNCaP-AR, PC3-PIP, CWR22, VCaP) (human, UniProt Q04609 1-750); experiment: cell-based or functional assay
[2] = biological target: PSMA on PSMA(+) canine osteosarcoma cell lines (D-17, DSN, DAN, DSDh) (canine, UniProt I4IY07 29-779); experiment: cell-based or functional assay
[3] = biological target: T1, Human PSMA antigen (human, UniProt Q04609 44-750, limits assumed); experiment: SPR Biacore, immobilised human PSMA, 37 C, 1:1 fit
T1 construct: This is the antigen immobilised on the Biacore chip; also called FOLH1_HUMAN
Experimental: (§1) PSMA-BsAb Biacore Settings. Human PSMA antigen was immobilized directly on Fc2 at 3000 RU, and cynomolgus PSMA (ACRO) on Fc4 at 3000 RU (Blank on Fc1 and Fc3 as controls). Abs were run through the system at 37° C., at concentrations of 250 and 500 nM, with association time 1 min, dissociation time 15 min. Regeneration was performed at 30 mM NaOH. All data were fitted with 1:1 model.

[4] = biological target: T2, cynomolgus PSMA (ACRO) (cynomolgus, UniProt A0A2K5VNZ0 44-750); experiment: SPR Biacore, immobilised cynomolgus PSMA, 37 C, 1:1 fit
T2 construct: Immobilised on the Biacore chip
Experimental: as §1

[5] = biological target: T1, Human PSMA antigen; experiment: SPR (Biacore), 37 C, antibody over immobilized PSMA
Source text: The calculated kinetic parameters derived from SPR are shown in FIG. 4C, showing distinct differences in affinities when compared to the chimeric and the original mouse antibody J591. Increased affinity of anti-PSMA antibodies should translate into higher potency, while lower affinity anti-PSMA antibodies into lower toxicity. This affinity modulation is achieved without altering the CDR sequences. Based on the binding kinetics, the clone having combination of J591_VL-1 and J591_VH-3, which has near identical binding kinetics to those of J591 chimeric antibody, was chosen to build the PSMA-BsAb (BC244) of the present technology. The amino acid sequences of the light chain (SEQ ID NO: 11) and the heavy chain (SEQ ID NO: 12) of the select clone are shown in FIG. 12. Mutation N297A was used to remove glycosylation, and K322A to minimize complement activation.

Sequence of PSMA on PSMA(+) canine osteosarcoma cell lines (D-17, DSN, DAN, DSDh) (I4IY07 entry or part of it limits assumed): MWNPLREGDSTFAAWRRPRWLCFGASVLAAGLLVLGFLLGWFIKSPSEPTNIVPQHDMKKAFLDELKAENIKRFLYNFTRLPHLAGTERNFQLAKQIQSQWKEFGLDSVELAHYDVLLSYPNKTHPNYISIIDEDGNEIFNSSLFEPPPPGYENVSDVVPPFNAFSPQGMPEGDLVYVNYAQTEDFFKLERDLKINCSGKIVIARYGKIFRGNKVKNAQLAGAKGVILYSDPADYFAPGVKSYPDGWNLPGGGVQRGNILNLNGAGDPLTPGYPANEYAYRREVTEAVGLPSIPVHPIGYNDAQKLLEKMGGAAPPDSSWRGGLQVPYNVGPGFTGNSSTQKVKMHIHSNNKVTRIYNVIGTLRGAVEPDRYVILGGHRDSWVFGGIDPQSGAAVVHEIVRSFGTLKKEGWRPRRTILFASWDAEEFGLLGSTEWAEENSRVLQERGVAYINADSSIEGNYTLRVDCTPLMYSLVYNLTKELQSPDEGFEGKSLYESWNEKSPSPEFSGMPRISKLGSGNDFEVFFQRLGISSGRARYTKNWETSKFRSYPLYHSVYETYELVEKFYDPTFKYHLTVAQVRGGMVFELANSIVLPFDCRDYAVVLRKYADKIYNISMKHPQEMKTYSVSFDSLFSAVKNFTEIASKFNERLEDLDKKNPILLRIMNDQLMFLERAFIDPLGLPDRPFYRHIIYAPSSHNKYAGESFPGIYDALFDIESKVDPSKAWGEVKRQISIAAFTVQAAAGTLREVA
Sequence of PSMA on PSMA(+) human prostate cancer cell lines (LNCaP-AR, PC3-PIP, CWR22, VCaP) (Q04609 whole entry): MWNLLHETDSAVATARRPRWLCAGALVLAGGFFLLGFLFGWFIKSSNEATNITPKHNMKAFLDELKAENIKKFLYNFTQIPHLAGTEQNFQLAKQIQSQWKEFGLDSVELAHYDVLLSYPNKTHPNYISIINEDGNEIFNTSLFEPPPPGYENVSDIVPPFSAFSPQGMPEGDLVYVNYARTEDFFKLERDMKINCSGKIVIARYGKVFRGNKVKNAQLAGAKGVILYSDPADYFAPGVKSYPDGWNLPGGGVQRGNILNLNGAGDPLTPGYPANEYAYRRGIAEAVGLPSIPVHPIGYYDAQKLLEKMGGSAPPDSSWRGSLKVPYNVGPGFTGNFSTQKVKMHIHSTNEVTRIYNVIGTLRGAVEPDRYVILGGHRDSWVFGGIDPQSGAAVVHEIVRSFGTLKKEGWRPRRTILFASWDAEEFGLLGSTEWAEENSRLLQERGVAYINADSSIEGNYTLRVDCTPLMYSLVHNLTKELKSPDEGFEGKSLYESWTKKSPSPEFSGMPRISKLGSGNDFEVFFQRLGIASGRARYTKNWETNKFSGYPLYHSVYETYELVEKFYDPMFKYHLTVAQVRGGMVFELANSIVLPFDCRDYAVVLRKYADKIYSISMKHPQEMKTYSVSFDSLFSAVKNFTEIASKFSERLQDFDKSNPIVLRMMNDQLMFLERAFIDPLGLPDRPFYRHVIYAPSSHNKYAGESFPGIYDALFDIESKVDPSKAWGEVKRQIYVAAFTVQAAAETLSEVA
T1 sequence (Q04609 44-750 limits assumed): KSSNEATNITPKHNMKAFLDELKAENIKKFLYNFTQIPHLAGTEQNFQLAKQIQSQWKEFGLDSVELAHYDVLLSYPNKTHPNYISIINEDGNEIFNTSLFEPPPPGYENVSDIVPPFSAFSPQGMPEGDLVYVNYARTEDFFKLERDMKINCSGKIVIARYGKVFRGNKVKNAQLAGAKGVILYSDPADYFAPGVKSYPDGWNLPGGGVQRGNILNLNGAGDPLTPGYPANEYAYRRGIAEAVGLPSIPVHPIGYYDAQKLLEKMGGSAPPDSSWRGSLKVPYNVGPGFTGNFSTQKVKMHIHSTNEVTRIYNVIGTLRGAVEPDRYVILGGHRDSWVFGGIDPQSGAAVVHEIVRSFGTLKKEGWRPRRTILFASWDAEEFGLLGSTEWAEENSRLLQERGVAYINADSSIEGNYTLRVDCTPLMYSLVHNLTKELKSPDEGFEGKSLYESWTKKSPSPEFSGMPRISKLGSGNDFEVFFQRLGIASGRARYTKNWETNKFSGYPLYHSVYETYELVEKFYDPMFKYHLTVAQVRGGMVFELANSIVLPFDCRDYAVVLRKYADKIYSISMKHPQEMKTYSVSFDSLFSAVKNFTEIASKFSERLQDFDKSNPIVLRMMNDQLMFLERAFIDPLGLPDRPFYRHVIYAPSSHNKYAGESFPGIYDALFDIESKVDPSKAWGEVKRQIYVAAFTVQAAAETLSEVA

Binder	EC50, ADTC (4-hour 51Cr release), LNCaP-AR cells [1]	EC50, ADTC (4-hour 51Cr release), PC3-PIP cells [1]	EC50, ADTC (4-hour 51Cr release), VCaP cells [1]	EC50, ADTC (4-hour 51Cr release), D-17 cells [2] [nM]	EC50, ADTC (4-hour 51Cr release), DAN cells [2] [nM]	EC50, ADTC (4-hour 51Cr release), DSDh cells [2] [nM]	EC50, ADTC (4-hour 51Cr release), DSN cells [2] [nM]	Kd [3] [nM]	koff [3] [s⁻¹]	kon [3] [M⁻¹ s⁻¹]	t ½ [3] [min]	Kd [4] [nM]	koff [4] [s⁻¹]	kon [4] [M⁻¹ s⁻¹]	t ½ [4] [min]	Kd [5] [nM]	koff [5] [s⁻¹]	kon [5] [M⁻¹ s⁻¹]
B1	0.000761 µg/mL and 3.81 pM	2.1e-05 µg/mL and 107 fM	0.0163 µg/mL and 81.7 pM	0.106	0.102	0.152	0.0703	1.18	0.000162	138000	71.2	2.79	0.000329	118000	35.1	–	–	–
B2	–	–	–	–	–	–	–	1.55	0.000196	127000	58.8	3.71	0.000716	193000	16.1	0.206	1.21e-05	58500
B3	–	–	–	–	–	–	–	2.9	0.000279	96200	41.3	8.75	0.000459	52500	25.2	–	–	–
B4	–	–	–	–	–	–	–	2.15	0.00021	97500	55	4.88	0.000209	42900	55.2	–	–	–
